# B1: Protein S100-A9 (Homo sapiens), P06702 (parent)
# chain: MTCKMSQLERNIETIINTFHQYSVKLGHPDTLNQGEFKELVRKDLQNFLKKENKNEKVIEHIMEDLDTNADKQLSFEEFIMLMARLTWASHEKMHEGDEGPGHHHKPGLGEGTP
# partner: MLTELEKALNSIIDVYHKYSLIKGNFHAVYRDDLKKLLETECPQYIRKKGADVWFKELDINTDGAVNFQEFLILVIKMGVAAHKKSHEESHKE
# Variants of: B1
# Conditions: with S100A8, P05109
row,effect of a mutation on the interaction,Variant
1,decreasing interaction,C3S

# — IntAct's records for PubMed 9867828
